# B1: TPR t1 (parent)
# chain: GACCAAUCUGCCCUCAGAGCUCGAGAACAUCUUCGGAUGCAGAGGAGGCAGGCUUCGGUGGCGCGAUAGCGCCAACGUCCUCAACCUCCAAUGCAUCCCACCACAUGAUGAUGCCUGAAGAGCCUUGGUUUUUUG
# Variants of: B1
# Assay: polymerase ribozyme fitness, log enrichment relative to wild type (log ratio); higher = more active; in vitro selection for triplet polymerase activity
# Outline: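 Libraries of mutants in each subunit of a heterodimeric triplet polymerase ribozyme were generated by PCR and transcribed. In triplicate, each went through one in vitro selection round: annealing with biotinylated primer, partner subunit and triplets; frozen incubation at −7 °C; gel excision of extended constructs; streptavidin-bead capture; RT-PCR. Fitness, taken from Illumina sequencing of input and output libraries, is the logarithm of a genotype's enrichment over wild-type enrichment, averaged across replicates with inverse-variance weights. The logarithm is base 2, and genotypes needed ≥10 input reads and ≥1 read per output to be kept.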
row,Variant,polymerase ribozyme fitness (log ratio)
1,GACCAAUGUUCCCUCAGAGCUCGAGAACAUCUUCGGAUGCAAAGCAGGCAGGCUUCGGUGGCGCGAUAGCGCCAACGUCCUCAACCUCCAAUGCAUCCCACCACAUGAUGAUGCCUGAAGAGCCUUGGUUUUUUG,-3.03
2,GACCAAUCGGCCCUCAGAGCUCGAGAACAUCUUCGGAUGUAGAGUAGGCAGGCUUCGGUGGCGCGAUAGCGCCAACGUCCUCAACCUCCAAUGCAUCCCACCACAUGAUGAUGCCUGAAGAGCCUUGGCUUUUUA,-3.12
3,GACCAAUGUGCCCUCAGAGCUCGAGAACAUCUUCGGAUGCAGAGGAGGCAGGCUUCGGUGGCGCGAUAGCGCCAACGUCCUCAAACUCCAAUGCAUCCCACCACAUGAUGAUGCCUGAAGUGCCUUGGUUUUUUG,1.35
4,GACCAAUCUGCCCUCAGAGCUCGAGAUCAUCUUCGGAUGCAGAGGAGGGAUGCUUCGGUGGCGCGAUAGCGCCAACGUGCUCAACCUCCAAUGCAUCCCACCACAUGAUGAUGCCUGAAGAGCCUUGGUUUUUUG,-6.98
5,GACCAUUCUGCCCUCAGAGCUCGAGAACAUCUUCGGAUGCAGAGGAGGUAGGUUUCGGUGGCGCGAUAGCGCCAACGUCCUCACCCUCCAAUGCAUCCCACCACAUGAUGAUGCCUGAAGAGCCUUGGUUUUUUG,-0.896
6,GACCAAUCUGCCCUCAGAGAUCGAGAACAUCUUCGGAUGCAGAGGAGGUAGGCUUCGGUGGCGCGAUAGCGUCAACGCCCUCAACCUCCAAUGCAUCCCACCACAUGAUGAUGCCUGAAGAGCCUUGGUUUUUUG,-3.44
7,GACCAAUCUGCCCUCAGCGCUCGAGAACUUCUUCGGAUGCAGAGGAGGCAGGCUUCGGUGGCGCGAUAGCGCCAACGUCCUCAACCUCCAAUGCAUCCCACCACAUGAUGAUGCCUGAAGAGCCUUGGUUUUUUG,-4.04
8,GACCAAUCUGCCCUCAGAGCUCGAGAACAUCUUCGGAUGCAGAGGGGGCAGGCUGCGGUGGCGCGAUAGCGCCAACGUCCUCAACCCCCAAUGCAUCCCACCACAUGAUGAUGCCUGAAGAGCCUUGGUUUUUUG,-0.104
9,GACCAAUCUGCCCUCAGAGCUCGAGAACAUCUUCGGAUGCAGAGAAGGCAGGCUUCGGUGGCGCGAUAGCGCCAACGUCCUCAACCUCCAAUCCAUCCCACCACAUGAUGAUGCCUGAAGAGCCUUGGUUUUUUG,-1.29
10,GACCAAUCUGCCCUCAGAGCUCGAGAACAUCUUCGGAUCCAGAGGAGGCAGGCUUGGGUGGCGCGAUAGCGCCAACGUCCUCAACCUCCAAUGCAUCCCACCACAUGAUGAUGCCUGAAGAGCCUUGGUUUUUUG,-1.53
11,GACCAAUCUGCCCUCAGAGCUCGAGAACAUCUUCGGAUGCAGAGUAGGCAGGCUUCGGUGGCGCGAUAGCGCCAACGUCCUCAACCUCCAAUGCAUCCCACCACAUGAUGAUGCAUGAAGAGCCUUGUUUUUUUG,-4.73
12,GACCAAUCUGCCCUCAGAUCUCGAGAACAUCUUCGGAUGCAGAGGAGUCAGGCUUCGGUGGCGCGAUAGCGCCAACGUACUCAAACUCCAAUGCAUCCCACCACAUGAUGAUGCCUGAACAGCCUUGGUCUUUUG,-5.41
13,GACCAAUCUGGCCUCAGAGCUCGAGAACAUCUUCGGAUCCAGAGGAGGCAGGCUUCGGUGGCGCGAUAGCGCCUACGUCCUCAACCUCCAAUGCAUCCCACCACAUGAUGAUGCUUGAAGAGCCUUGGUUUUUUG,-2.3
14,GACCAAUCUGCCCUCAGAGCUCGAGAACAUCUUCGGAUGCAGAGGAGGCAGGCUUGGGUGGCGCGAUAGCGCCAACGUCCUCAACCUCCAAUGCAUCCCACCACAUGAUGGUGCCUGAAGAGCCUUGGUUUUUUG,0.245
15,GACCAAUCUGCCCUCAGAGCUCGAGAACAUCUUCGGAUUCAGAGGGGGCAGGCUUCGGUGGCACGAUAGCGCCAACGUCCUCAACCUCCAAUGCAUCCCACCACAUGAUGAUGCGUGAAGAGCCUUGGUUUUUUG,-1.83
16,GAUCAAUCUGCCCUCAGAGCUCGAGAACAUCUUCGGAUGCAGAGGAGGCAGGCUUCGGUGGCGCGAUAGCGCCAACUUCCUCAACCUCCAAUGCAUCCCACCACAUGAUGAUGCCUGAACAGCCUUGGUUUUUUG,0.534
17,GACCAAUCUGCCCUCAGAGCUCGAGAACAUCUUCGGAUGCAGAGGAGGCAGGCUUCGGUGGCGCGAUAGCGCCAACGUCCUCAACCUCCAAUACAUCUCACCACAUGAUGAUGCCUGAAGAGCCUUGGUUUUUUG,-1.72
18,GACCAAUCUGCCCUCAGAGCUCGAGAACAUCUCCGGAUGCAGAGGAGGCAGGCUUCGGUUGCGCGAUAGCGCCAACGUCCUCAACCUCCAAUGCAUCCCACCACAUGAUGAUGCCUGAAGAGCCUUGGUUUUUUG,-3.44
19,GACCAAUCUGCCCUCAGAGCUCGAGAACAUCUUCGGAUGCAAAGGAGGCAGGCUUCGGUGGCGCGAUAGCGCCAACGUCCUCAACCUCCAAUGCAUCCCACCACAUGAUGAUGCCUGAAGUGCCUUGGUUUUUUG,0.623
20,GACCAAUCAGCCCUCAGAGCUCGAGAACAUCUUCGGAUGCAGAGGAGGGAGGCUUCGGUGGCGCGAUAGCGCCAACGUCCUCAACCUCCAAUCCAUCCCACCACAUGAUGAUGCCUGAAAAGCCUUGGUUAUUUG,0.443
21,GACCAAUCUGCCCUCUGAGCUCGAGAACAUCUUCGGAUGCAGAGGAGGCAGGCUUGGGUGGCGCGAUAGCGCCAACGUCCUCAACCUCCAAUGCAUCCCACCACAUGAUGAUGCCUGAAGAGCCAUGGUUUUUUG,-3.24

row,Variant,polymerase ribozyme fitness (log ratio)
1,GACCAAUCUGCCCUCAGAGCUCGAGAACAUCUUCGGAUGCAGAGGAGGCUGGCUUCGGUGGCGCGAUAGCGCCGACGUCCUCAACCUCCAAUGCAUCCCACCACAUGAUGAUGCCUGAAGAGCCUUGGUUUUUUG,-1.27
2,GACCAAUCUACCCUCAGAGCUCGAGAACAUCUUCGGAUGCAGAGGAGGCAGGAUUCGGUGGCGCGAUAGCCCCAACGUCCUCAACCUCCAAUGCAUCCCACCAUAUGAUAAUGGCUGAAGAGCCUUGGUUUUUUG,-6.44
3,GACCAAUUUGCCCUCAGUGCUCGAGAACAUCUUCGGAUGCAGAGGAGGCAGGCUUCAGUGGCGUGAUAGCGCCAACGUCCUCAACCUCCAAUGUAUCCCACCACAUGAUGAUGCCUGAAGAGCCUUGGUUUUUUG,-4.97
4,GACCAAUCUGCCCUCAGAGCUCGAGAACAUCUUCGGAUGCAGAGGAGGCAGGCUUCGGUGGCGCGAUAGCGUCAACGUCCUCAACCUCCAAUGCAUCCCACCACAUGAUGAUGCCAGAAUAGCCUUGGUUUUUUG,-1.54
5,GACCAAUCUGCCCUCAGAGCUCGAGAACAUCUUCGGAUGCAGAGGAGGCAGGUUUCGGUGGCGCGAUAGCGCCAACGUCCUCAACCUCCUAUGCAUCCCACCACAUGAUGAUGCCUGAAGAGCCUUGGUUUUUUG,-0.929
6,GACCAAUCUGCCCUCAGAGCUCGAGAACAUCUUCGGAUGCAGAGGAGGCAGGCUUCGGUGGCGCGAUAGCGCCAACGUUAUCAACCUCCAAUGCAUCCCACCACAUGAUGAUGCCUGAAGAGCCUUGGUUUUUUG,-3.65
7,GACCAAUGUACCCUCAGAGCUCGAGAACAUCUUCGGAUGCAGAGGAGGCAGGCUUCGGUGGCGCGAUAGCGCCAACGUCCUCAACCUCCAAUGCAUCCCACCACAUGAUGAUGCCUGAAGAGCCUUGGUUUUUUG,0.258
8,GACCAAUCUGCCCUCAGAGCUCGAUAACAUCUUCGGAUGCAGAGGAGGCAGGCUUCGGUGGCGGGAUAGCGCCAACGUCCUCAACCUCCAAUGUAUCCCACCACAUGAUGAUGCCUGAAGAGCGUUGGUUUUUUG,-6.12
9,GACCAAUCUGCCCUCAGAGCUCGAGAACAUCUUCGGAUGCAGAGGAGGCAGGUUUCGGUGGCGCGAUAGCGCCAACUUCCUCAACCUCCAAUGCAUCCCACCACAUGAUGAUGCCUGAAGAGCCUUGGUUUAUUG,-0.78
10,GACCAAUCUGCCCUCAGAGCUCGAGAACAUCUUCGGAUGCAGAGGAGGCAGGCUUCGGUGGCACGAUAGCGCCAACGUCCUCAACCUCCAAUGCAUCCCACCACAUGAUGAUGCCUGAAGAGCCUUGUUUUUUUG,-3.07
11,GUCCAAUCUGCCCUCAGAGCUCGAGAACAUCUUCUGAUGCAGAGGAGGCAGGCUUCGGUGGCGCGAUAUCGCCAACGUUCUCAACCUCCAAUGCAUCCCACCACAUGAUGAUGCCUGAAAAGCCUUGAUUUUUUG,-3.99
12,GACCAAUCAGCCCUCAGAGCUCGAGACCACCUUCGGAUGCAGAGGAGGCAGGCUUGGGUGGCGCGAUAGCGCCAACGUCCUCAACCUCCAAUGCAUCCCACCACAUGAUGUUGCCUGAAGAGCCUUGGUUUUUUG,-4.95
13,GACCAAUCUGCCCUCAGAGCUCGAGAACAUCUUCGGAUGCAGAGGAGGCAGGCUUCGGUGGCGCGAUAGUGCCAACGUCCUCAACCUCCAAGGCAUCCCACCACAUGAUGAUGCCUGGAGAGCCUUGGUUUUUUG,-3.55
14,GACCAAUCUGCCCUCAGAGCUCGAGAACAUCUUCGGGUGCAAAGGAGGCAGGCUUCGGUGGCGCGAUAGCGCCAACGUGCUCAACCUCCAAUGCAUCCCACCAUAUGAUGAUGCCUGAAGAGCCUUGGUUUUUUG,-4.86
15,GACCAAUCUGCCCUCAGAGCUCGAGAACAUCUUCGGAUGCAGAGGAGGCAGGCUUCGGUGGCGCGAUAGCGCCAACGUCCUCAACCUCCAAUGCAUCCCACAACAUGAUGAUGCGUGAAGAGCCUUGGUUUUUUG,-3.72
16,GACCAAUCUGCCCUUAGAGCUCGAGAACAUCUUCGGAUGCGGAGGAGGCAGGCUUCGGUGGCGCGAUAGCGCCAACGUCCUCAACCUCCAAUGCAUCCCACCACAUGAUGAUGCCUGAAGAGCCUUGGUUUUUUG,-1.83
17,GACGAAUCUGCCCUCAGAGCUCGAGAACAUCUUCGGAUGCAGAGGAGGCAGGCUUCGGUGGCGUGAUAGCGCCAACGUCCUCAACCUCCAAUGCAUCCCACCACACGAUGAUGCGUGAAGAGCCUUGGUUUUUUG,-5.73
18,GACCAAUUUGCCGUCAGAGCUCGAGAACAUCUUCGGAUGCAGAGGAGGCAGGCUUCGGUGGCGCGAUAGCGCCAACGUCCUCAACCUCCAAUGCAUCCCACCACAUGAUUAUGCCUGAAGAGCCUUGGUUUUUUG,-1.09
19,GACCAAUCUGCCCUCAGAGCUCGAGAACAUCUUCGGAUCCAGAGGAGGCAGGCUUCGGUGGCGCGCUAGCGCCAACGUCCUCAACCUCCAAUGCAUCCCACCACAUGAUGAUGCCUGAAGAGCCUUGGUUUUUUG,-1.94
20,GACCAAUCUGCCCUCAGAGCUCGAGAACAUCUUCGGAUGCAGAGGAGGCAGGCUUCGGUGGCGCGAUAGCGUCAACGUCCUCAACCUCCAAUGCAUCCCAUCACAUGAUGAUGCCUGAAGAGCCUUGGUUUUUUG,-0.522
21,GACCAAUCUGCCCUCAGAGCUCGAGAACAUCUUCGGAUGCAGAGGAGUCAGUCUUCGGUGGCGCGAUAGCGCUAACGUCCUCAACCUCCUAUGCAUCCCACCACAUGAUGAUGCCUGAAGAGCGUUGGUUUUUUG,-1.99

# Reference: the RNAGym collection of RNA variant scans (doi:10.1073/pnas.2313332121)
